The results in this text go back to patent publication US20140051120A1 (Genentech, published 2014).

For orientation: Kd means a measure of binding affinity in units of concentration. Read a high Kd as a looser complex. The term koff denotes a measure of how fast the partners let go of each other. A higher koff goes with fast dissociation. Broadly, the kon is the rate constant with which the complex forms. Lower therefore signals slower complex formation.

Substitutions are numbered along the chain they refer to. Where “and” joins values, the source holds several entries; their conditions need not be identical. Identical values can stand only once. Like-named read-outs stand apart in the source and are kept apart here. Where no end group is shown, it is not given here.

Test [1] concerns the target T1, human EGFL7 (EGFL7-CB-His) (human, UniProt Q9UHF1 23-273, limits assumed).
T1 sequence: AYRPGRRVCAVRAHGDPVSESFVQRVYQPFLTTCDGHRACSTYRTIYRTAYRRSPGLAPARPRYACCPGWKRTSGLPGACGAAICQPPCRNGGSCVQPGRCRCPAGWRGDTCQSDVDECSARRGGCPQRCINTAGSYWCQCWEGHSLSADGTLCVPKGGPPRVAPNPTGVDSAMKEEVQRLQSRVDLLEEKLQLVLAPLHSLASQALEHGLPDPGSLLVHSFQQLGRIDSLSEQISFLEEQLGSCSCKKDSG
Put plainly: cell-based or functional assay.

Test [2] has as its target T2, mouse EGFL7 (mEGFL7-CB-His) (mouse, UniProt Q9QXT5 22-275).
T2 sequence: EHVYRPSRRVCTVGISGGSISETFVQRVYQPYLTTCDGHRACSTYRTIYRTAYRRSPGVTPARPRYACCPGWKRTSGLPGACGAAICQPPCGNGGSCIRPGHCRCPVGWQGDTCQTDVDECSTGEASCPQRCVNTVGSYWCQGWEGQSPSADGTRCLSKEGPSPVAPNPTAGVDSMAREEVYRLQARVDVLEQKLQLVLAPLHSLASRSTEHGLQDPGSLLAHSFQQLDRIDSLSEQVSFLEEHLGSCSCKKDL
Put plainly: SPR (Biacore), IgG over immobilized mEGFL7-CB at 37 C.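 Note: IgG injected as twofold series from 0.5 to 1000 nM, 3 min association and 3.5 min dissociation, reference flow cell subtracted, kinetics fitted to 1:1 Langmuir model.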

Test [3] concerns the target T3, p5 peptide of EGFL7 (human).
T3 construct: also called Peptide P5
T3 peptide: RACSTYRTIYRTA
Put plainly: SPR (Biacore), IgG over immobilized P5 peptide at 37 C, n = 3.

In test [4] the target is T4, truncated human EGFL7 (residues 1-182) (human, UniProt Q9UHF1 24-182).
T4 construct: Expressed in CHO cells; The range as printed starts at Met 1; also called truncated EGFL7; truncated huEGFL7
T4 chain: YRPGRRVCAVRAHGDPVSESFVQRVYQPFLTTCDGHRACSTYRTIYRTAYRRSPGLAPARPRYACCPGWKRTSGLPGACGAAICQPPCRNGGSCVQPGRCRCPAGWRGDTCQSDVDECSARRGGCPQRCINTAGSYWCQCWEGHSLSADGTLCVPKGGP
Put plainly: phage ELISA on truncated huEGFL7 immobilized on a microtiter plate. A general note: ELISA stands for enzyme-linked immunosorbent assay.

The target in test [5] is T2, mouse EGFL7 (mEGFL7-CB-His). Put plainly: cell-based or functional assay.
Test [6] addresses T3, p5 peptide of EGFL7. Put plainly: SPR (Biacore), IgG over immobilized P5 peptide at 37 C.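 Note: IgG variants injected at 0.5–1000 nM (2-fold series), 3 min association and 3.5 min dissociation, reference flow cell subtracted, kinetics fitted with a 1:1 Langmuir model.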 A general note: SPR reads the build-up and loss of mass on a sensor chip optically.
Test [7] has as its target T5, p2S (p2 peptide biotinylated through its free cysteine) (human, also: biotinylated (maleimide PEO2-biotin) on one of the two Cys, which one not given here).
T5 construct: The peptide has two cysteines; also called b-p2S
T5 peptide: RPRYACCPGWKRT
Put plainly: SPR (Biacore), binding to p2S, KD relative to ch4F11.

In test [8] the target is T2, mouse EGFL7 (mEGFL7-CB-His). Put plainly: cell-based or functional assay. The source holds these as a separate data set.
Test [9] deals with T1, human EGFL7 (EGFL7-CB-His). Put plainly: cell-based or functional assay. The source holds these as a separate data set.
Test [10] deals with T4, truncated human EGFL7 (residues 1-182). Put plainly: phage ELISA on truncated huEGFL7 immobilized on a microtiter plate.

B1: 18F7.v6 IgG (antibody, V domains shown)
VH: EVQLVESGGGLVQPGGSLRLSCAASGYTFIDYYMNWVRQAPGKGLEWVGDINLDNGGTHYNQKFKGRFTISRDKSKNTAYLQMNSLRAEDTAVYYCAREGVYHDYDDYAMDYWGQGTLVTVSS
VL: DIQMTQSPSSLSASVGDRVTITCRTSQSLVHINGITYLHWYQQKPGKAPKLLIYRVSNRFSGVPSRFSGSGSGTDFTLTISSLQPEDFATYYCGQSTHVPLTFGQGTKVEIKR
notes: IgG; also called hu18F7.v6
Regarding B1, the “IC50, HUVEC adhesion [left panel]” value in [1] was found to be 5.62 nM. For the same molecule, in test [2], the Kd was 0.408 nM, the off-rate constant (koff) is 2.04e-05 s⁻¹ and the kon amounted to 50000 M⁻¹ s⁻¹. In test [3], this molecule displayed a Kd of 3.21 nM, a koff of 0.000389 s⁻¹ and a kon of 121000 M⁻¹ s⁻¹.

B2: phage displaying 18F7-graft Fab (Fab, V domains shown)
VH: B1 VH with K74N, A79L
VL: B1 VL with G94S
notes: Monovalent Fab-g3 display on M13 phage; heavy chain VH-CH1 fused to P3; also called 18F7-graft phage
As for B2, the binding result in test [4] is “binds”.

B3: 18F7.v6K IgG (antibody, V domains shown)
VH: B1 VH with G56S
VL: B1 VL with G34A
notes: IgG; also called hu18F7.v6k; h18F7.v6k
In the case of B3, in test [5], the “IC50, HUVEC adhesion [right panel]” value is 6.37 µg/ml and 42 nM. In [6], this molecule returned an equilibrium dissociation constant (Kd) of 5.2 nM, a koff of 0.000662 s⁻¹ and a kon of 127000 M⁻¹ s⁻¹. For the same molecule, in test [2], the Kd turned out to be 1.6 nM, the koff amounted to 4.54e-05 s⁻¹ and the kon was 28000 M⁻¹ s⁻¹.

B4: 4F11.v17 IgG (antibody, V domains shown)
VH: EVQLVESGGGLVQPGGSLRLSCAASGHTFTTYGMSWVRQAPGKGLEWVGWINTHSGVPTYADDFKGRFTISLDNSKNTAYLQMNSLRAEDTAVYYCARLGSYAVDYWGQGTLVTVSS
VL: DIQMTQSPSSLSASVGDRVTITCKASQSVDYSGDSYMSWYQQKPGKAPKLLIYGASYRESGVPSRFSGSGSGTDFTLTISSLQPEDFATYYCQQNNEEPYTFGQGTKVEIKR
notes: IgG; Library 1 framework; also called hu4F11.v17
As to B4, the “Fold change in KD variant/(chimera)” value in test [7] came out at 0.93 fold. In test [8], the “IC50 (read off the curve), HUVEC adhesion” value was approximately 10 µg/mL. The “Cell Adhesion Assay (human EGFL7) Variant/ch4F11 (fold)” value in test [9] was 0.86 fold.

B5: 4F11.v22 IgG (antibody, V domains shown)
VH: B4 VH with V2I, V48M, N77S, Y95F
VL: B4 VL
notes: IgG; Library 2 framework
In the case of B5, in test [7], the “Fold change in KD variant/(chimera)” value is 1 fold. For the same molecule, the “Cell Adhesion Assay (human EGFL7) Variant/ch4F11 (fold)” value in test [9] is 0.81 fold.

B6: phage displaying 4F11.v1 Fab (Fab, V domains shown)
VH: B4 VH with L72R, A79L, Y102S
VL: B4 VL with S32D, Y57N, R58L, E98D
notes: Monovalent Fab-g3 display on M13 phage; heavy chain VH-CH1 fused to minor coat protein P3; also called 4F11.v1 phage; 4F11-graft Fab on phage
In the case of B6, the binding result in test [10] was “binds”.
